Laboratory results from US20060099646A1, “Bret assay” (priority 2002, published 2006).

Experiments:
renilla luciferase = test: Light emission from renilla luciferase after addition of DeepBlueC solution (FIG. 3)
Description: (§1) The dilution of DeepBlueC in 40% ethanol/buffer is essential for the stability of DeepBlueC. If DeepBlueC is diluted in buffer alone, it will precipitate within 10 to 20 minutes, making it virtually impossible to use the assay in HTS mode. […] 100 μl of resuspended cells were transferred into wells in 96-well white optiplate plate • 3. 12 μl agonist was added. • 4. 5 μl of diluted DeepBlueC/well was added, and the plate was read.

[1] = Precipitation / stability of diluted DeepBlueC substrate solution; type: physicochemical
Description: One of the problems associated with setting up an assay, such as, e.g. a high through-put screening (HTS) assay, is to prepare a suitable solution of the substrate, DeepBlueC™. If the stock solution of DeepBlueC™ is diluted to the relevant concentration for use in a BRET assay in D-PBS as recommended, it will form a precipitate within 10 to 20 minutes, making it virtually impossible to use for a HTS assay.
(§2) Assay: • 1. Dilution of DeepBlueC to 100 μM in 40% ethanol in D-PBS with 1000 mg/l L-Glucose (#14287) (light sensitive!!). The DeepBlueC™ stock solution comprises 1 mM DeepBlueC™ in 100% v/v EtOH.
as §1

NK1 receptor = biological target: T1, NK1 receptor (Homo sapiens, UniProt P25103); test: BRET assay, NK1-Rluc / β-arrestin-2-GFP; type: cell-based; conditions: NK1 receptor (class B) coexpressed with β-arrestin mutant; versus WT; FIG. 2
T1 construct: expressed in transfected cells
T1 sequence (P25103 whole entry, species assumed): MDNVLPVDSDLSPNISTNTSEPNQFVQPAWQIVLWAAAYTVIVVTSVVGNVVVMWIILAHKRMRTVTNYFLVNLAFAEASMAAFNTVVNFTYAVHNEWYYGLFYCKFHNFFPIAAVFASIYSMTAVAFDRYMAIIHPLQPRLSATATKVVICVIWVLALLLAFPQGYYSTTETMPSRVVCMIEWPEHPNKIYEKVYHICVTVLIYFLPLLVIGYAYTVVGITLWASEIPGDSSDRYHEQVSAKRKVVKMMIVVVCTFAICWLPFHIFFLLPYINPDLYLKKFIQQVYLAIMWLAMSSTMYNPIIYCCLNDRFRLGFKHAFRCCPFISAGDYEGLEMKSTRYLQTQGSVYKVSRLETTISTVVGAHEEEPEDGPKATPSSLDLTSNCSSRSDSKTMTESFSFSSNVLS
Description: (§3) Cell Preparation for BRET Assay: • 1. 48 hrs after transfection with 2 μg receptor-Rluc DNA (e.g. NK1-Rluc or β2AR-Rluc) and 5 μg β-arrestin-2 DNA (e.g. the R393E; R395E mutant) (for assays with GRK also 2 μg GRK DNA, e.g. GRK-5) media was removed and cell washed 1× with PBS • 2. 1 ml 1× trypsin (T75 flask) was added and incubated 3-5 min at 37 C • 3. 10 mL complete media was added. • 4. Cells were transferred to tube and spun down (5 min, 800 rpm) • 5. Media was removed, and cells resuspended in 10 ml PBS and counted, spun down (5 min, 800 rpm) • 6. Resuspended in D-PBS with 1000 mg/l L-Glucose (#14287) to a density of 2×10^6 cells/ml • 7. Cells were left at room temperature for at least 30 min, to stabilize readings.
as §2
as §1, with “12 μl agonist was added. • 4.” left out
(§4) Antagonist: • 1. […] 6 μl of diluted DeepBlueC/well was added, and the plate read.

β2AR receptor = biological target: T2, β2AR receptor (Homo sapiens, UniProt P07550); test: BRET assay, β2AR-Rluc / β-arrestin-2-GFP; type: cell-based; conditions: β2AR receptor (class A) coexpressed with β-arrestin mutant; versus WT; FIG. 2
T2 construct: expressed in transfected cells
Description: as §3, §2
as §1, with “12 μl agonist was added. • 4.” left out
as §4

β2AR/Rluc receptor = biological target: T3, β2AR/Rluc receptor (Homo sapiens, UniProt P07550); test: β2AR internalization assay; type: cell-based; conditions: COS-7 cells, co-expressed with β2AR/Rluc; isopterenol 10 min at 37° C; versus WT β-arrestin; FIG. 1
T3 construct: expressed in transfected cells; host or cells: COS-7
Description: COS-7 cells in 75 cm^2 flask (3×10^6 cells/flask) were used for trasfection. β2AR/Rluc receptor (1.3 μg cDNA/flask) was coexpressed together with 6.5 μg GFP^2/β-arrestin 2, 6.5 μg GFP^2/β-arrestin R169E, 6.5 μg GFP^2/β-arrestin Lys 373 stop or 6.5 μg GFP^2/β-arrestin R393E, R395E. Receptor internalization assay was based on protocol described by Barak and Caron J Recept Signal Transduct Res 1995 January-March;15(14):677-90. At the end of transfection period (3-5 hours), cells were washed twice with PBS, trypsinesed and plated at a density of 2.5×10^5 cells per well in 12-well plates. After 48 hours, cells were washed once with assay medium (HEPES-modified DMEM with 0.1% BSA, pH 7.4) and serum-starved in the same medium for additional 2-3 hours before being stimulated with […] isopterenol for 10 min at 37° C. Stimulation was stopped by washing the cells with ice-cold PBS. Cells were then subjected to [^125I]-pindolol binding at 4° C. for 3 h and the fraction of internalized receptors determined relative to unstimulated cells. Non-specific binding was determined under the same conditions in the presence of 1 μM pindolol.

NK-1/Rluc receptor = biological target: T4, NK-1/Rluc receptor (Homo sapiens, UniProt P25103); test: NK-1 receptor internalization assay; type: cell-based; conditions: COS7 cells, co-expressed with NK-1/Rluc; 125I-SP 10 min at 37 C; versus WT β-arrestin; FIG. 1
T4 construct: expressed in transfected cells; host or cells: COS7
T4 sequence (P25103 whole entry): as the sequence (P25103 whole entry, species assumed) above
Description: COS7 cells in 75 cm^2 flask (3×10^6 cells/flask) were used for transfection. NK-1/Rluc receptor (2 μg cDNA/flask) was coexpressed together with 6 μg GFP/β-arrestin 2, 6 μg GFP^2/β-arrestin R169E, 6 μg GFP^2/β-arrestin Lys 373 stop or 6 μg GFP^2/β-arrestin R393E, R395E. At the end of transfection period (3-5 hours), cells were washed twice with PBS, trypsinased and plated at a density of 2.5×10^5 cells per well in 12-well plates. After 48 hours, cells were washed once with assay medium (HEPES-modified DMEM with 0.1% BSA, pH 7.4) and incubated in assay medium for at least 1 hour before being incubated with ^125I-labeled SP (30000 cpm/well) in 0.5 ml assay medium 10 min at 37 C. Cells were then transferred onto ice and washed twice with ice-cold PBS. Subsequently, the extracellular receptor-associated ligand was removed by washing once with 1 ml of acid solution (50 mM acetic acid and 150 mM NaCl, pH 2.8) for 12 min. The acid wash was collected to determine the surface-bound radioactivity, and the internalized radioactivity was determined after solubilizing the cells in 0.2 M NaOH and 1% SDS (NaOH/SDS) solution. Nonspecific binding for each time point was determined under the same conditions in the presence of 1 μM unlabeled agonist (SP). After subtraction of nonspecific binding, the internalized radioactivity was expressed as a percentage of the total binding.

Molecule: O=c1c(Cc2ccccc2)nc2c(Cc3ccccc3)[nH]c(-c3ccccc3)cn1-2 [DeepBlueC]
- stability of light emission signal (renilla luciferase; DeepBlueC dissolved in buffer with 0% ethanol): rapidly decreases
- stability of light emission signal (renilla luciferase; DeepBlueC dissolved in buffer with 6% ethanol): rapidly decreases
- stability of light emission signal (renilla luciferase; DeepBlueC dissolved in buffer with 40% ethanol): stable for the duration of the experiment
- stability of diluted solution ([1]; diluted in 40% ethanol in D-PBS with 1000 mg/l L-Glucose): stable for hours
- time to formation of precipitate ([1]; stock solution diluted in D-PBS / buffer alone, no ethanol): 10 to 20 min

Molecule: human β-arrestin-2 373 stop mutant: truncated human β-arrestin-2 lacking clathrin and/or AP2 binding sites; used as GFP fusion
- specific BRET ratio (BRET signal) (NK1 receptor): the effect is less pronounced
- specific BRET ratio (BRET signal) (β2AR receptor): increasing the BRET signal significantly
- internalization of the β2AR (β2AR/Rluc receptor): inhibiting the internalization
- internalization of the NK1-R (NK-1/Rluc receptor): inhibiting the internalization

Molecule: human β-arrestin-2 R393E; R395E mutant: human β-arrestin-2 wherein amino acids 393 and 395 have been changed from arginine to glutamic acid; used as GFP fusion
- specific BRET ratio (BRET signal) (NK1 receptor): the effect is less pronounced
- specific BRET ratio (BRET signal) (β2AR receptor): increasing the BRET signal significantly
- internalization of the β2AR (β2AR/Rluc receptor): inhibiting the internalization
- internalization of the NK1-R (NK-1/Rluc receptor): inhibiting the internalization
